Results published in the supplement of paper PMC11908140.

B1: library; numbered along this chain (parent)
chain: MRKPRAAVGSGHRKQAASQEGRQKHAKNNSQAKPSACDGLARQPEEVVLQASVSSYHLFRDVAEVTAFRGSLLSWYDQEKRDLPWRRRAEDEMDLDRRAYAVWVSEVMLQQTQVATVINYYTGWMQKWPTLQDLASASLEEVNQLWAGLGYYSRGRRLQEGARKVVEELGGHMPRTAETLQQLLPGVGRYTAGAIASIAFGQATGVVDGNVARVLCRVRAIGADPSSTLVSQQLWGLAQQLVDPARPGDFNQAAMELGATVCTPQRPLCSQCPVESLCRARQRVEQEQLLASGSLSGSPDVEECAPNTGQCHLCLPPSEPWDQTLGVVNFPRKASRKPPREESSATCVLEQPGALGAQILLVQRPNSGLLAGLWEFPSVTWEPSEQLQRKALLQELQRWAGPLPATHLRHLGEVVHTFSHIKLTYQVYGLALEGQTPVTTVPPGARWLTQEEFHTAAVSTAMKKVFRVYQGQQPGTCMGSKRSQVSSPCSRKKPRMGQQVLDNFFRSHISTDAHSLNSAAQ

Variants of: B1
Test: 8OG:A repair function score (normalized; synonymous = 0, nonsense = -1) (normalized log-likelihood score); higher = more repair activity (WT-like)
Details: with 8OG:A DNA repair reporter (GFP) in HEK-293 MUTYH KO cells
Experimental: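 Saturation mutagenesis (NNN codon scan) of the MUTYH cDNA (521-aa nuclear isoform NM_001048174.1 / NP_001041639), stably expressed under doxycycline induction in HEK-293 MUTYH knockout cells. Cells were co-transfected with an 8OG:A-bearing GFP repair reporter plus mCherry and sorted 72 h later into GFP+ and GFP− bins, three replicates per tile. The Rosace log2 enrichment (GFP+ vs GFP−) was converted per tile to a normalized function score with synonymous variants centered at 0 and nonsense variants (codons 1-471) at -1; low-abundance variants were removed.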

Variant	8OG:A repair function score
MRKPRRAVGSGHRKQAASQEGRQKHAKNNSQAKPSACDGLARQPEEVVLQASVSSYHLFRDVAEVTAFRGSLLSWYDQEKRDLPWRRRAEDEMDLDRRAYAVWVSEVMLQQTQVATVINYYTGWMQKWPTLQDLASASLEEVNQLWAGLGYYSRGRRLQEGARKVVEELGGHMPRTAETLQQLLPGVGRYTAGAIASIAFGQATGVVDGNVARVLCRVRAIGADPSSTLVSQQLWGLAQQLVDPARPGDFNQAAMELGATVCTPQRPLCSQCPVESLCRARQRVEQEQLLASGSLSGSPDVEECAPNTGQCHLCLPPSEPWDQTLGVVNFPRKASRKPPREESSATCVLEQPGALGAQILLVQRPNSGLLAGLWEFPSVTWEPSEQLQRKALLQELQRWAGPLPATHLRHLGEVVHTFSHIKLTYQVYGLALEGQTPVTTVPPGARWLTQEEFHTAAVSTAMKKVFRVYQGQQPGTCMGSKRSQVSSPCSRKKPRMGQQVLDNFFRSHISTDAHSLNSAAQ [A6R]	-0.0747
MRKPRQAVGSGHRKQAASQEGRQKHAKNNSQAKPSACDGLARQPEEVVLQASVSSYHLFRDVAEVTAFRGSLLSWYDQEKRDLPWRRRAEDEMDLDRRAYAVWVSEVMLQQTQVATVINYYTGWMQKWPTLQDLASASLEEVNQLWAGLGYYSRGRRLQEGARKVVEELGGHMPRTAETLQQLLPGVGRYTAGAIASIAFGQATGVVDGNVARVLCRVRAIGADPSSTLVSQQLWGLAQQLVDPARPGDFNQAAMELGATVCTPQRPLCSQCPVESLCRARQRVEQEQLLASGSLSGSPDVEECAPNTGQCHLCLPPSEPWDQTLGVVNFPRKASRKPPREESSATCVLEQPGALGAQILLVQRPNSGLLAGLWEFPSVTWEPSEQLQRKALLQELQRWAGPLPATHLRHLGEVVHTFSHIKLTYQVYGLALEGQTPVTTVPPGARWLTQEEFHTAAVSTAMKKVFRVYQGQQPGTCMGSKRSQVSSPCSRKKPRMGQQVLDNFFRSHISTDAHSLNSAAQ [A6Q]	0.0112
MRKPRVAVGSGHRKQAASQEGRQKHAKNNSQAKPSACDGLARQPEEVVLQASVSSYHLFRDVAEVTAFRGSLLSWYDQEKRDLPWRRRAEDEMDLDRRAYAVWVSEVMLQQTQVATVINYYTGWMQKWPTLQDLASASLEEVNQLWAGLGYYSRGRRLQEGARKVVEELGGHMPRTAETLQQLLPGVGRYTAGAIASIAFGQATGVVDGNVARVLCRVRAIGADPSSTLVSQQLWGLAQQLVDPARPGDFNQAAMELGATVCTPQRPLCSQCPVESLCRARQRVEQEQLLASGSLSGSPDVEECAPNTGQCHLCLPPSEPWDQTLGVVNFPRKASRKPPREESSATCVLEQPGALGAQILLVQRPNSGLLAGLWEFPSVTWEPSEQLQRKALLQELQRWAGPLPATHLRHLGEVVHTFSHIKLTYQVYGLALEGQTPVTTVPPGARWLTQEEFHTAAVSTAMKKVFRVYQGQQPGTCMGSKRSQVSSPCSRKKPRMGQQVLDNFFRSHISTDAHSLNSAAQ [A6V]	0.0405
MRKPRYAVGSGHRKQAASQEGRQKHAKNNSQAKPSACDGLARQPEEVVLQASVSSYHLFRDVAEVTAFRGSLLSWYDQEKRDLPWRRRAEDEMDLDRRAYAVWVSEVMLQQTQVATVINYYTGWMQKWPTLQDLASASLEEVNQLWAGLGYYSRGRRLQEGARKVVEELGGHMPRTAETLQQLLPGVGRYTAGAIASIAFGQATGVVDGNVARVLCRVRAIGADPSSTLVSQQLWGLAQQLVDPARPGDFNQAAMELGATVCTPQRPLCSQCPVESLCRARQRVEQEQLLASGSLSGSPDVEECAPNTGQCHLCLPPSEPWDQTLGVVNFPRKASRKPPREESSATCVLEQPGALGAQILLVQRPNSGLLAGLWEFPSVTWEPSEQLQRKALLQELQRWAGPLPATHLRHLGEVVHTFSHIKLTYQVYGLALEGQTPVTTVPPGARWLTQEEFHTAAVSTAMKKVFRVYQGQQPGTCMGSKRSQVSSPCSRKKPRMGQQVLDNFFRSHISTDAHSLNSAAQ [A6Y]	-0.0552
MRKPRTAVGSGHRKQAASQEGRQKHAKNNSQAKPSACDGLARQPEEVVLQASVSSYHLFRDVAEVTAFRGSLLSWYDQEKRDLPWRRRAEDEMDLDRRAYAVWVSEVMLQQTQVATVINYYTGWMQKWPTLQDLASASLEEVNQLWAGLGYYSRGRRLQEGARKVVEELGGHMPRTAETLQQLLPGVGRYTAGAIASIAFGQATGVVDGNVARVLCRVRAIGADPSSTLVSQQLWGLAQQLVDPARPGDFNQAAMELGATVCTPQRPLCSQCPVESLCRARQRVEQEQLLASGSLSGSPDVEECAPNTGQCHLCLPPSEPWDQTLGVVNFPRKASRKPPREESSATCVLEQPGALGAQILLVQRPNSGLLAGLWEFPSVTWEPSEQLQRKALLQELQRWAGPLPATHLRHLGEVVHTFSHIKLTYQVYGLALEGQTPVTTVPPGARWLTQEEFHTAAVSTAMKKVFRVYQGQQPGTCMGSKRSQVSSPCSRKKPRMGQQVLDNFFRSHISTDAHSLNSAAQ [A6T]	0.0379
MRKPRPAVGSGHRKQAASQEGRQKHAKNNSQAKPSACDGLARQPEEVVLQASVSSYHLFRDVAEVTAFRGSLLSWYDQEKRDLPWRRRAEDEMDLDRRAYAVWVSEVMLQQTQVATVINYYTGWMQKWPTLQDLASASLEEVNQLWAGLGYYSRGRRLQEGARKVVEELGGHMPRTAETLQQLLPGVGRYTAGAIASIAFGQATGVVDGNVARVLCRVRAIGADPSSTLVSQQLWGLAQQLVDPARPGDFNQAAMELGATVCTPQRPLCSQCPVESLCRARQRVEQEQLLASGSLSGSPDVEECAPNTGQCHLCLPPSEPWDQTLGVVNFPRKASRKPPREESSATCVLEQPGALGAQILLVQRPNSGLLAGLWEFPSVTWEPSEQLQRKALLQELQRWAGPLPATHLRHLGEVVHTFSHIKLTYQVYGLALEGQTPVTTVPPGARWLTQEEFHTAAVSTAMKKVFRVYQGQQPGTCMGSKRSQVSSPCSRKKPRMGQQVLDNFFRSHISTDAHSLNSAAQ [A6P]	-0.0227
MRKPRSAVGSGHRKQAASQEGRQKHAKNNSQAKPSACDGLARQPEEVVLQASVSSYHLFRDVAEVTAFRGSLLSWYDQEKRDLPWRRRAEDEMDLDRRAYAVWVSEVMLQQTQVATVINYYTGWMQKWPTLQDLASASLEEVNQLWAGLGYYSRGRRLQEGARKVVEELGGHMPRTAETLQQLLPGVGRYTAGAIASIAFGQATGVVDGNVARVLCRVRAIGADPSSTLVSQQLWGLAQQLVDPARPGDFNQAAMELGATVCTPQRPLCSQCPVESLCRARQRVEQEQLLASGSLSGSPDVEECAPNTGQCHLCLPPSEPWDQTLGVVNFPRKASRKPPREESSATCVLEQPGALGAQILLVQRPNSGLLAGLWEFPSVTWEPSEQLQRKALLQELQRWAGPLPATHLRHLGEVVHTFSHIKLTYQVYGLALEGQTPVTTVPPGARWLTQEEFHTAAVSTAMKKVFRVYQGQQPGTCMGSKRSQVSSPCSRKKPRMGQQVLDNFFRSHISTDAHSLNSAAQ [A6S]	-0.117
MRKPRAAVGSGHRKQAASQEGRQKHAKNNSQAKCSACDGLARQPEEVVLQASVSSYHLFRDVAEVTAFRGSLLSWYDQEKRDLPWRRRAEDEMDLDRRAYAVWVSEVMLQQTQVATVINYYTGWMQKWPTLQDLASASLEEVNQLWAGLGYYSRGRRLQEGARKVVEELGGHMPRTAETLQQLLPGVGRYTAGAIASIAFGQATGVVDGNVARVLCRVRAIGADPSSTLVSQQLWGLAQQLVDPARPGDFNQAAMELGATVCTPQRPLCSQCPVESLCRARQRVEQEQLLASGSLSGSPDVEECAPNTGQCHLCLPPSEPWDQTLGVVNFPRKASRKPPREESSATCVLEQPGALGAQILLVQRPNSGLLAGLWEFPSVTWEPSEQLQRKALLQELQRWAGPLPATHLRHLGEVVHTFSHIKLTYQVYGLALEGQTPVTTVPPGARWLTQEEFHTAAVSTAMKKVFRVYQGQQPGTCMGSKRSQVSSPCSRKKPRMGQQVLDNFFRSHISTDAHSLNSAAQ [P34C]	0.0156
MRKPRAAVGSGHRKQAASQEGRQKHAKNNSQAKASACDGLARQPEEVVLQASVSSYHLFRDVAEVTAFRGSLLSWYDQEKRDLPWRRRAEDEMDLDRRAYAVWVSEVMLQQTQVATVINYYTGWMQKWPTLQDLASASLEEVNQLWAGLGYYSRGRRLQEGARKVVEELGGHMPRTAETLQQLLPGVGRYTAGAIASIAFGQATGVVDGNVARVLCRVRAIGADPSSTLVSQQLWGLAQQLVDPARPGDFNQAAMELGATVCTPQRPLCSQCPVESLCRARQRVEQEQLLASGSLSGSPDVEECAPNTGQCHLCLPPSEPWDQTLGVVNFPRKASRKPPREESSATCVLEQPGALGAQILLVQRPNSGLLAGLWEFPSVTWEPSEQLQRKALLQELQRWAGPLPATHLRHLGEVVHTFSHIKLTYQVYGLALEGQTPVTTVPPGARWLTQEEFHTAAVSTAMKKVFRVYQGQQPGTCMGSKRSQVSSPCSRKKPRMGQQVLDNFFRSHISTDAHSLNSAAQ [P34A]	-0.039
MRKPRAAVGSGHRKQAASQEGRQKHAKNNSQAKDSACDGLARQPEEVVLQASVSSYHLFRDVAEVTAFRGSLLSWYDQEKRDLPWRRRAEDEMDLDRRAYAVWVSEVMLQQTQVATVINYYTGWMQKWPTLQDLASASLEEVNQLWAGLGYYSRGRRLQEGARKVVEELGGHMPRTAETLQQLLPGVGRYTAGAIASIAFGQATGVVDGNVARVLCRVRAIGADPSSTLVSQQLWGLAQQLVDPARPGDFNQAAMELGATVCTPQRPLCSQCPVESLCRARQRVEQEQLLASGSLSGSPDVEECAPNTGQCHLCLPPSEPWDQTLGVVNFPRKASRKPPREESSATCVLEQPGALGAQILLVQRPNSGLLAGLWEFPSVTWEPSEQLQRKALLQELQRWAGPLPATHLRHLGEVVHTFSHIKLTYQVYGLALEGQTPVTTVPPGARWLTQEEFHTAAVSTAMKKVFRVYQGQQPGTCMGSKRSQVSSPCSRKKPRMGQQVLDNFFRSHISTDAHSLNSAAQ [P34D]	0.128
MRKPRAAVGSGHRKQAASQEGRQKHAKNNSQAKGSACDGLARQPEEVVLQASVSSYHLFRDVAEVTAFRGSLLSWYDQEKRDLPWRRRAEDEMDLDRRAYAVWVSEVMLQQTQVATVINYYTGWMQKWPTLQDLASASLEEVNQLWAGLGYYSRGRRLQEGARKVVEELGGHMPRTAETLQQLLPGVGRYTAGAIASIAFGQATGVVDGNVARVLCRVRAIGADPSSTLVSQQLWGLAQQLVDPARPGDFNQAAMELGATVCTPQRPLCSQCPVESLCRARQRVEQEQLLASGSLSGSPDVEECAPNTGQCHLCLPPSEPWDQTLGVVNFPRKASRKPPREESSATCVLEQPGALGAQILLVQRPNSGLLAGLWEFPSVTWEPSEQLQRKALLQELQRWAGPLPATHLRHLGEVVHTFSHIKLTYQVYGLALEGQTPVTTVPPGARWLTQEEFHTAAVSTAMKKVFRVYQGQQPGTCMGSKRSQVSSPCSRKKPRMGQQVLDNFFRSHISTDAHSLNSAAQ [P34G]	-0.0669
MRKPRAAVGSGHRKQAASQEGRQKHAKNNSQAKESACDGLARQPEEVVLQASVSSYHLFRDVAEVTAFRGSLLSWYDQEKRDLPWRRRAEDEMDLDRRAYAVWVSEVMLQQTQVATVINYYTGWMQKWPTLQDLASASLEEVNQLWAGLGYYSRGRRLQEGARKVVEELGGHMPRTAETLQQLLPGVGRYTAGAIASIAFGQATGVVDGNVARVLCRVRAIGADPSSTLVSQQLWGLAQQLVDPARPGDFNQAAMELGATVCTPQRPLCSQCPVESLCRARQRVEQEQLLASGSLSGSPDVEECAPNTGQCHLCLPPSEPWDQTLGVVNFPRKASRKPPREESSATCVLEQPGALGAQILLVQRPNSGLLAGLWEFPSVTWEPSEQLQRKALLQELQRWAGPLPATHLRHLGEVVHTFSHIKLTYQVYGLALEGQTPVTTVPPGARWLTQEEFHTAAVSTAMKKVFRVYQGQQPGTCMGSKRSQVSSPCSRKKPRMGQQVLDNFFRSHISTDAHSLNSAAQ [P34E]	0.0965
